From PMC3655264 (2010)
Where no end group is shown, it is not given here. [ ]: non-standard residue; d: D form. The star is where a group is joined. MPB‑DPPE = 1,2-dipalmitoyl-sn-glycero-3-phosphoethanolamine-N-[4-(p-maleimidophenyl)butyramide], CCCCCCCCCCCCCCCC(=O)OC[C@H](COP(=O)(O)OCCNC(=O)CCCc1ccc(N2C(=O)CC(*)C2=O)cc1)OC(=O)CCCCCCCCCCCCCCC; pS = N[C@@H](COP(=O)(O)O)C(=O)O

B1: lipid-linked TGN38 sorting motif peptide (CKVTRRPKASDYQRL) displayed in liposomes (peptide)
peptide: C(MPB‑DPPE)KVTRRPKASDYQRL
B2: lipid-linked phosphorylated CD4 dileucine sorting signal peptide (CHRRRQAERM(SP)QIKRLLSEK) displayed in liposomes (peptide)
peptide: C(1,2‑dipalmitoyl‑sn‑glycero‑3‑phosphoethanolamine‑N‑(4-(p-maleimidophenyl)butyramide))HRRRQAERM[pS]QIKRLLSEK

Experiments:
μ2 KRR>E Core [1] = biological target: T1, μ2 KRR>E Core (Rattus norvegicus (alpha2, mu2), Homo …); assay: SPR; liposomes with 10% PtdIns4,5P2 + 1% TGN38
[2] = biological target: β2^PIP-Core (AP2 core with β2 Lys5, Lys12, Lys26, Lys27, Lys29, Lys36 mutated to glutamate) (UniProt P63010 1-592; P84092 1-236; P84092 237-435; P62743 1-142, Lys5 to glutamate | Lys12 to glutamate | Lys26 to glutamate | Lys27 to …); assay: SPR; liposomes with 10% PtdIns4,5P2 + 1% TGN38
[3] = biological target: T2, AP2 core (recombinant; α trunk, β2 trunk, myc-tagged μ2, σ2) (UniProt P63010 1-592; P84092 1-236; P84092 237-435; P62743 1-142); assay: SPR; liposomes with 10% PtdIns4,5P2 + 1% TGN38
[4] = biological target: α^PIP-Core (AP2 core with mutations in the PtdIns4,5P2-binding site on α) (UniProt P63010 1-592; P84092 1-236; P84092 237-435; P62743 1-142); assay: SPR; liposomes with 10% PtdIns4,5P2 + 1% TGN38
[5] = biological target: T3, μ2^PIP-Core (AP2 core with the μ2 mutations 5K>E and KRR>E combined) (UniProt P63010 1-592; P84092 1-236; P84092 237-435; P62743 1-142); assay: SPR; liposomes with 10% PtdIns4,5P2 + 1% TGN38
μ2 5K>E Core [6] = assay: SPR; liposomes with 10% PtdIns4,5P2 + 1% TGN38
μ2 KRR>E Core [7] = biological target: T1, μ2 KRR>E Core; assay: SPR; liposomes with 10% PtdIns4,5P2 + 1% CD4P
[8] = biological target: T2, AP2 core (recombinant; α trunk, β2 …); assay: SPR; liposomes with 10% PtdIns4,5P2 + 1% CD4P
[9] = biological target: T3, μ2^PIP-Core (AP2 core with the μ2 …); assay: SPR; liposomes with 10% PtdIns4,5P2 + 1% CD4P
μ2 5K>E Core [10] = assay: SPR; liposomes with 10% PtdIns4,5P2 + 1% CD4P

T1 sequence (chain, as listed by the source, chain 1 of 4): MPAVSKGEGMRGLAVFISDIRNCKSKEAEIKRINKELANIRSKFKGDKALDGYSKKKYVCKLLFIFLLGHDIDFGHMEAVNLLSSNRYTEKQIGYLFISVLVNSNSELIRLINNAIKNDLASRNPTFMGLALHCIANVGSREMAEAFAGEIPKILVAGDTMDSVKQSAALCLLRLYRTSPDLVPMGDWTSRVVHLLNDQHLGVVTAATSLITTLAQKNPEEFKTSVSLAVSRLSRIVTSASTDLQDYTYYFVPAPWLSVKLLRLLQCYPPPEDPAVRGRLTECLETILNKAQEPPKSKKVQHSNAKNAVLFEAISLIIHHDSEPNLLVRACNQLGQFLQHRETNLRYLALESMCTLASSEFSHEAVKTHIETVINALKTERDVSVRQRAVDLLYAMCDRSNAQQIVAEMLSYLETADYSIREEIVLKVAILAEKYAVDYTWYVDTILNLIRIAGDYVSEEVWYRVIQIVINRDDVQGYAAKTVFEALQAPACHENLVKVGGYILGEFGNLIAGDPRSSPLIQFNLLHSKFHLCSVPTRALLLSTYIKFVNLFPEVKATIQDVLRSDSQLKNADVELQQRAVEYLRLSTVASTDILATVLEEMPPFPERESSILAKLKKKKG
T1 sequence (chain, as listed by the source, chain 2 of 4): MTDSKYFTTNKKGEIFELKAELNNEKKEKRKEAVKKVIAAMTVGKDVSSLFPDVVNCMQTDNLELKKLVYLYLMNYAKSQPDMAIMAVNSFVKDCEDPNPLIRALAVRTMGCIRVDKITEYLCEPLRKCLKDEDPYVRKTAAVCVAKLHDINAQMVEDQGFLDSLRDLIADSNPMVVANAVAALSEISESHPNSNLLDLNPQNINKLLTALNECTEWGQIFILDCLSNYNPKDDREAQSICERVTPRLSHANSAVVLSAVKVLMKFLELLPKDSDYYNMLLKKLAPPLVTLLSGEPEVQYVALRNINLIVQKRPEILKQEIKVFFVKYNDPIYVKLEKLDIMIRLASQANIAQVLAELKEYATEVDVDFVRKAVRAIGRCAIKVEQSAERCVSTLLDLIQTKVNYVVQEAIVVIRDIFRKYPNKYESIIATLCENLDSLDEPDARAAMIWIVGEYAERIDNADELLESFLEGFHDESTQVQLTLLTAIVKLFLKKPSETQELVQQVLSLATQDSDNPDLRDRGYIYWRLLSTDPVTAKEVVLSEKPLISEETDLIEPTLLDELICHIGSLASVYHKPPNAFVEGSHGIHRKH
T1 sequence (chain, as listed by the source, chain 3 of 4): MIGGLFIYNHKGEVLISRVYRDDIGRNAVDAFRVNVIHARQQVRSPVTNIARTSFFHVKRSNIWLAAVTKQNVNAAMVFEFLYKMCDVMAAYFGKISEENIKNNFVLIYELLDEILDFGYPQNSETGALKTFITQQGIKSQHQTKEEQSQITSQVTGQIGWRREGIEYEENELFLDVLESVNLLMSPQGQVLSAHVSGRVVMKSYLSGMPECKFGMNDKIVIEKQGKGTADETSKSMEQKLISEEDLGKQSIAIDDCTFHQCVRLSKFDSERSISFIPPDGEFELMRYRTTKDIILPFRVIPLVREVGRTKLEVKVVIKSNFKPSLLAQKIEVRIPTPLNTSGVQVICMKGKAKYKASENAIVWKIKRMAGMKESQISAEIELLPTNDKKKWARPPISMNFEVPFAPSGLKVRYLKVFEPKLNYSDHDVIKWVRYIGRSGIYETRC
T1 sequence (chain, as listed by the source, chain 4 of 4): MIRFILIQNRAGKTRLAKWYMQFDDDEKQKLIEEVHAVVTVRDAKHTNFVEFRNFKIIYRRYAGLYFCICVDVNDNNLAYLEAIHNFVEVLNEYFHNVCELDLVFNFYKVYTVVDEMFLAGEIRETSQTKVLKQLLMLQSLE
T2 sequence (chain, as listed by the source, chain 1 of 4): as the sequence (chain, as listed by the source, chain 1 of 4) above
T2 sequence (P63010 1-592, chain 2 of 4): as the sequence (chain, as listed by the source, chain 2 of 4) above
T2 sequence (P84092 other isoform, or with tags, fused parts or gaps, chain 3 of 4): as the sequence (chain, as listed by the source, chain 3 of 4) above, with E167K, E169R, E170R counted along it
T2 sequence (P62743 whole entry, chain 4 of 4): as the sequence (chain, as listed by the source, chain 4 of 4) above
β2^PIP-Core (AP2 core with β2 Lys5, Lys12, Lys26, Lys27, Lys29, Lys36 mutated to glutamate), sequence (P18484 other isoform, or with tags, fused parts or gaps with the stated changes, chain 1 of 4): as the sequence (chain, as listed by the source, chain 1 of 4) above
β2^PIP-Core (AP2 core with β2 Lys5, Lys12, Lys26, Lys27, Lys29, Lys36 mutated to glutamate), sequence (P63010 other isoform, or with tags, fused parts or gaps with the stated changes, chain 2 of 4): as the sequence (chain, as listed by the source, chain 2 of 4) above, with K5E, K12E, K26E, K27E, K29E, K36E counted along it
β2^PIP-Core (AP2 core with β2 Lys5, Lys12, Lys26, Lys27, Lys29, Lys36 mutated to glutamate), sequence (Q96CW1 other isoform, or with tags, fused parts or gaps with the stated changes, chain 3 of 4, further chain): as the sequence (chain, as listed by the source, chain 3 of 4) above, with E167K, E169R, E170R counted along it
β2^PIP-Core (AP2 core with β2 Lys5, Lys12, Lys26, Lys27, Lys29, Lys36 mutated to glutamate), sequence (B2R4Z4 whole entry, stated change not applied, chain 4 of 4, further chain): as the sequence (chain, as listed by the source, chain 4 of 4) above

Row | Binder | Kd (μ2 KRR>E Core [1]) [nM] | Kd [2] [nM] | Kd [3] [nM] | Kd [4] [nM] | Kd [5] [nM] | Kd (μ2 5K>E Core [6]) [nM] | Kd (μ2 KRR>E Core [7]) [nM] | Kd [8] [nM] | Kd [9] [nM] | Kd (μ2 5K>E Core [10]) [nM]
1 | B1 | 330 | 20000 | 320 | > 30000 | 6200 | 520 | – | – | – | –
2 | B2 | – | – | – | – | – | – | 850 | 820 | 2500 | 950
